According to IntAct's records for PubMed 26416881:

B1: MICOS complex subunit MIC19 (Saccharomyces cerevisiae), P43594 (parent)
chain: MGSNTSKVGAGAEKQQVYTPLTQIDFSQSLVSQLDSSKESDYVTKQNAEKFIEKKVSQRLSNLEVETLKKFEDTLNNSLLSDDDKDAVDGISSSSLNNQIESLNKKLTLFDQLELQKLEKYGGAKGKSDKKTDNGSISIKAKLTECLLANKGKPLNCYEEMEEFKKLVMG
partner: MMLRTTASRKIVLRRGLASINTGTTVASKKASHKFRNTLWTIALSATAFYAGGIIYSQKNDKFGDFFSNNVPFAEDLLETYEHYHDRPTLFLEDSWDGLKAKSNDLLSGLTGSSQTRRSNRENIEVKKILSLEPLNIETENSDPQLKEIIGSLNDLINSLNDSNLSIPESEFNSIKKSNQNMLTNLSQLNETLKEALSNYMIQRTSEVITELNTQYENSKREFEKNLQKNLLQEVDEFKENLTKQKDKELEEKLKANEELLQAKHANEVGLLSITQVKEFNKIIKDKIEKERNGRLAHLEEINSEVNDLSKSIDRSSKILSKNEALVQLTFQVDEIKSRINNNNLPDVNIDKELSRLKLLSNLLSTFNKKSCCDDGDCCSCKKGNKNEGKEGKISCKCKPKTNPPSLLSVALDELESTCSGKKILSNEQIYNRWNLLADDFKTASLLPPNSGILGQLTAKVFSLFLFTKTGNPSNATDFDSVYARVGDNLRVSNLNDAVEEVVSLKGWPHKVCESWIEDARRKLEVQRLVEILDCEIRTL

Variants of: B1
Conditions: with mic60_yeast MIC60, P36112

Row | Variant | effect of a mutation on the interaction
1 | MGSNTSKVGAGAEKQQVYTPLTQIDFSQSLVSQLDSSKESDYVTKQNAEKFIEKKVSQRLSNLEVETLKKFEDTLNNSLLSDDDKDAVDGISSSSLNNQIESLNKKLTLFDQLELQKLEKYGGAKGKSDKKTDNGSISIKAKLTESLLANKGKPLNCYEEMEEFKKLVMG [C146S] | with no effect
2 | MGSNTSKVGAGAEKQQVYTPLTQIDFSQSLVSQLDSSKESDYVTKQNAEKFIEKKVSQRLSNLEVETLKKFEDTLNNSLLSDDDKDAVDGISSSSLNNQIESLNKKLTLFDQLELQKLEKYGGAKGKSDKKTDNGSISIKAKLTECLLANKGKPLNSYEEMEEFKKLVMG [C157S] | decreasing interaction strength
